Assay results as given in PMC9287412, “Cryo-EM structure of the human Kv3.1 channel reveals gating control by the cytoplasmic T1 domain” (Nature Communications, 2022).

Target: the molecule itself
Test: cryo-EM structure; purified Kv3.1a, 20 uM, in 20 mM HEPES pH 7.5, 100 mM NaCl, 50 mM KCl, 0.04% digitonin; apo, with 1 mM EDTA or with 400 uM ZnCl2; subunits within the tetrameric channel

B1: human Kv3.1a channel (full-length human Kv3.1, isoform A) (natural protein, UniProt P48547 1-511, looked up)
chain: MGQGDESERIVINVGGTRHQTYRSTLRTLPGTRLAWLAEPDAHSHFDYDPRADEFFFDRHPGVFAHILNYYRTGKLHCPADVCGPLYEEELAFWGIDETDVEPCCWMTYRQHRDAEEALDSFGGAPLDNSADDADADGPGDSGDGEDELEMTKRLALSDSPDGRPGGFWRRWQPRIWALFEDPYSSRYARYVAFASLFFILVSITTFCLETHERFNPIVNKTEIENVRNGTQVRYYREAETEAFLTYIEGVCVVWFTFEFLMRVIFCPNKVEFIKNSLNIIDFVAILPFYLEVGLSGLSSKAAKDVLGFLRVVRFVRILRIFKLTRHFVGLRVLGHTLRASTNEFLLLIIFLALGVLIFATMIYYAERIGAQPNDPSASEHTHFKNIPIGFWWAVVTMTTLGYGDMYPQTWSGMLVGALCALAGVLTIAMPVPVIVNNFGMYYSLAMAKQKLPKKKKKHIPRPPQLGSPNYCKSVVNSPHHSTQSDTCPLAQEEILEINRAGRKPLRGMSI
notes: Voltage-gated potassium channel Kv3.1, human, shorter splice variant Kv3.1a (isoform A, α-isoform), full length, cloned from the mammalian gene collection; Homotetramer in the cryo-EM structures; the longer Kv3.1b was not used; also called shorter α-isoform of Kv3.1; KCNC1 gene product; not shown: Strep-II, C-terminal, cleaved; His10, C-terminal, cleaved; GFP, C-terminal, cleaved
  stoichiometry N: 4
